Measured values reported in patent publication US20050113327.

Tested on: Actin of lily pollen tubes

Substance	lily pollen tube length after 1.5 h in vitro (FIG. 31; control 0.26 mm)	lily pollen tube length after 2 h in vitro (control without RNase about 300 µm)	actin filaments distribution in lily pollen tubes (TRITC-phalloidin staining)
iodoacetylated (IAc-) RNase B1	IAc RNase B1 inhibits pollen tubes growth in a similar manner of non-modified RNase B1		
RNase B1 boiled for 30 minutes		Boiling or autoclaving the RNase yielded pollen tubes of 130 and 170 µm in length, respectively	
autoclaved RNase B1		Boiling or autoclaving the RNase yielded pollen tubes of 130 and 170 µm in length, respectively	
Aspergillus niger B1 extracellular RNase (RNase B1)	Both RNase B1 and IAc-RNase B1 exhibited a clear inhibitory effect on pollen tube growth	reached only 160 µm in length	in RNase-treated pollen tubes masses of actin were accumulated at the tip cell wall
